Source: the supplement of paper PMC7125110
± gives the standard error. For some assays here: Variants at the floor of the assay were thinned out.

B1: glmS ribozyme (parent)
chain: AUAAAAGCGCCAGAACUACAGAAAUGUAGUUGACGAGGAGGAGGUUUAUCGAAUUUUCGGCGGAUGCCUCCAAA

Key:
Details in all cases: with glucosamine-6-phosphate
glucosamine-6-phosphate [1] = variants of: B1; assay: kcat; higher = faster cleavage; RNA array
Summary of the method: (§1)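 Barcoded ribozyme variants were transcribed in situ on sequenced MiSeq chips by E. coli RNA polymerase. At 37 °C, a hybridised Cy3 probe tracked them while glucosamine-6-phosphate (40 μM to 10 mM) in HEPES/KCl/Mg(OAc)2 buffer flowed in and tiles were imaged over ~14 h. Per-tile medians of signals normalised to baseline and to non-cleaving reference variants were fit to one- or two-exponential decays, giving kobs. kcat and KM came from weighted Michaelis–Menten fits across concentrations.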

glucosamine-6-phosphate [2] = variants of: B1; assay: self-cleavage kobs at 40 uM GlcN6P; higher = faster cleavage; RNA array
Summary of the method: as §1

glucosamine-6-phosphate [3] = variants of: B1; assay: self-cleavage kobs at 10000 uM GlcN6P; higher = faster cleavage; RNA array
Summary of the method: as §1

glucosamine-6-phosphate [4] = variants of: B1; assay: KM; higher = weaker cofactor use; RNA array
Summary of the method: as §1

glucosamine-6-phosphate [5] = variants of: B1; assay: self-cleavage kobs at 640 uM GlcN6P; higher = faster cleavage; RNA array
Summary of the method: as §1

glucosamine-6-phosphate [6] = variants of: B1; assay: self-cleavage kobs at 2500 uM GlcN6P; higher = faster cleavage; RNA array
Summary of the method: as §1

glucosamine-6-phosphate [7] = variants of: B1; assay: self-cleavage kobs at 160 uM GlcN6P; higher = faster cleavage; RNA array
Summary of the method: as §1

Row | Variant | kcat (glucosamine-6-phosphate [1]) | self-cleavage kobs at 40 uM GlcN6P (glucosamine-6-phosphate [2]) | self-cleavage kobs at 10000 uM GlcN6P (glucosamine-6-phosphate [3]) | KM (glucosamine-6-phosphate [4]) | self-cleavage kobs at 640 uM GlcN6P (glucosamine-6-phosphate [5]) | self-cleavage kobs at 2500 uM GlcN6P (glucosamine-6-phosphate [6]) | self-cleavage kobs at 160 uM GlcN6P (glucosamine-6-phosphate [7])
1 | G13A U49C | < 1e-05 s⁻¹ | < 1e-05 s⁻¹ | < 1e-05 s⁻¹ | – | – | – | –
2 | A14C C58A | 0.000221 ± 1.4e-05 s⁻¹ | – | 0.000165 ± 1.7e-05 s⁻¹ | 3250 ± 500 µM | 3.29e-05 ± 1.1e-05 s⁻¹ | 0.000102 ± 1.6e-05 s⁻¹ | –
3 | A12U A52C C67A | 2.65e-05 ± 5e-06 s⁻¹ | – | – | – | – | – | –
4 | A14C G29C | 0.00095 ± 0.00038 s⁻¹ | – | 0.000438 ± 6.2e-05 s⁻¹ | – | 6.24e-05 ± 1.5e-05 s⁻¹ | 0.000139 ± 2.5e-05 s⁻¹ | –
5 | A14C C16G A53U | 2.08e-05 ± 7.9e-07 s⁻¹ | – | – | 1700 ± 260 µM | – | – | –
6 | G13C A48G | < 1e-05 s⁻¹ | – | < 1e-05 s⁻¹ | – | – | < 1e-05 s⁻¹ | –
7 | G13A G21U G37U C70U | < 1e-05 s⁻¹ | – | – | – | – | < 1e-05 s⁻¹ | –
8 | A12U U65G | 0.00705 ± 0.00071 s⁻¹ | 5.57e-05 ± 9.8e-06 s⁻¹ | 0.00483 ± 0.00044 s⁻¹ | 4650 ± 730 µM | 0.000829 ± 0.00018 s⁻¹ | 0.00239 ± 0.00046 s⁻¹ | 0.000303 ± 6.4e-05 s⁻¹
9 | G13A G66A | 0.000323 ± 2.9e-05 s⁻¹ | – | 0.000241 ± 4.7e-05 s⁻¹ | 3550 ± 700 µM | – | 0.000129 ± 3.2e-05 s⁻¹ | –
10 | G13A G66U | 1.72e-05 ± 6.7e-06 s⁻¹ | < 1e-05 s⁻¹ | – | – | – | – | –
11 | G13A C70U | 0.000795 ± 0.00019 s⁻¹ | – | 0.000676 ± 9.5e-05 s⁻¹ | 2410 ± 870 µM | 0.000154 ± 1.7e-05 s⁻¹ | 0.000388 ± 6.1e-05 s⁻¹ | 7.83e-05 ± 1.4e-05 s⁻¹
12 | G13U G51A | < 1e-05 s⁻¹ | – | < 1e-05 s⁻¹ | – | < 1e-05 s⁻¹ | < 1e-05 s⁻¹ | –
13 | G13A A39G C61G C70A | < 1e-05 s⁻¹ | – | – | – | – | – | –
14 | A14C G41U | 0.000291 ± 6.9e-05 s⁻¹ | – | 0.000272 ± 4.2e-05 s⁻¹ | – | 0.000102 ± 1.6e-05 s⁻¹ | 0.000161 ± 2.2e-05 s⁻¹ | –
15 | A12U U31C | 0.011 ± 0.0038 s⁻¹ | 0.000254 ± 4.3e-05 s⁻¹ | 0.0101 ± 0.0026 s⁻¹ | 2070 ± 880 µM | 0.00178 ± 0.00062 s⁻¹ | – | 0.000727 ± 0.00017 s⁻¹
16 | A14C A33U | 3.55e-05 ± 2.4e-06 s⁻¹ | – | 3.21e-05 ± 7.6e-06 s⁻¹ | 994 ± 450 µM | – | – | –
17 | A14C G37A | 0.000437 ± 0.00013 s⁻¹ | – | 0.000388 ± 6.8e-05 s⁻¹ | – | 8.51e-05 ± 1.4e-05 s⁻¹ | 0.000201 ± 3e-05 s⁻¹ | 6.1e-05 ± 1.7e-05 s⁻¹
18 | A14C G37C | < 1e-05 s⁻¹ | < 1e-05 s⁻¹ | < 1e-05 s⁻¹ | – | < 1e-05 s⁻¹ | – | –
19 | A12U A39C A52G | 0.000172 ± 2.4e-05 s⁻¹ | – | 0.00015 ± 2.7e-05 s⁻¹ | 2140 ± 680 µM | 4.67e-05 ± 1.3e-05 s⁻¹ | 8.04e-05 ± 1.8e-05 s⁻¹ | –
20 | G13C U56G | 0.000107 ± 9.4e-06 s⁻¹ | – | 8.26e-05 ± 1.2e-05 s⁻¹ | 2860 ± 820 µM | – | 5.37e-05 ± 1.7e-05 s⁻¹ | –

Row | Variant | kcat (glucosamine-6-phosphate [1]) | self-cleavage kobs at 40 uM GlcN6P (glucosamine-6-phosphate [2]) | self-cleavage kobs at 10000 uM GlcN6P (glucosamine-6-phosphate [3]) | KM (glucosamine-6-phosphate [4]) | self-cleavage kobs at 640 uM GlcN6P (glucosamine-6-phosphate [5]) | self-cleavage kobs at 2500 uM GlcN6P (glucosamine-6-phosphate [6]) | self-cleavage kobs at 160 uM GlcN6P (glucosamine-6-phosphate [7])
21 | G13U A48U | < 1e-05 s⁻¹ | – | – | – | – | – | < 1e-05 s⁻¹
22 | G13A A53U C58A | 0.000493 ± 0.00022 s⁻¹ | – | 0.000332 ± 8.4e-05 s⁻¹ | – | 6.46e-05 ± 1.6e-05 s⁻¹ | 0.000366 ± 0.0001 s⁻¹ | –
23 | A14C G32A | 0.00779 ± 0.0028 s⁻¹ | 0.000121 ± 2.5e-05 s⁻¹ | 0.00702 ± 0.00097 s⁻¹ | – | 0.0014 ± 0.00034 s⁻¹ | 0.00183 ± 0.00065 s⁻¹ | 0.000388 ± 0.00011 s⁻¹
24 | A12U A33C | 0.00204 ± 0.00049 s⁻¹ | – | 0.00113 ± 0.00019 s⁻¹ | 7810 ± 2600 µM | 0.000178 ± 3.4e-05 s⁻¹ | 0.000501 ± 9.3e-05 s⁻¹ | 2.87e-05 ± 1.3e-05 s⁻¹
25 | A12U U46A | 0.00538 ± 0.00031 s⁻¹ | 0.000119 ± 1.5e-05 s⁻¹ | 0.0045 ± 0.00062 s⁻¹ | 1720 ± 140 µM | 0.00161 ± 0.00033 s⁻¹ | 0.00326 ± 0.0006 s⁻¹ | –
26 | G13U C67U | 0.000313 ± 1.9e-05 s⁻¹ | – | 0.000274 ± 2.4e-05 s⁻¹ | 1680 ± 230 µM | 8.78e-05 ± 1.1e-05 s⁻¹ | 0.000177 ± 2e-05 s⁻¹ | 2.74e-05 ± 7.6e-06 s⁻¹
27 | A12U G40U | 0.0088 ± 0.0017 s⁻¹ | 0.000308 ± 2.8e-05 s⁻¹ | 0.00785 ± 0.00081 s⁻¹ | 1410 ± 390 µM | 0.00235 ± 0.00038 s⁻¹ | 0.00609 ± 0.00085 s⁻¹ | 0.000749 ± 8.6e-05 s⁻¹
28 | G13U A14U | 0.000743 ± 0.00015 s⁻¹ | – | 0.00066 ± 7.3e-05 s⁻¹ | 2270 ± 1000 µM | 0.000174 ± 3.7e-05 s⁻¹ | 0.000331 ± 4.6e-05 s⁻¹ | 8.56e-05 ± 2.3e-05 s⁻¹
29 | A12U C67U C70G | 2.06e-05 ± 6.6e-06 s⁻¹ | – | – | – | – | – | –
30 | G13A G59A | < 1e-05 s⁻¹ | – | – | – | – | – | –
31 | A14C A15G G40U | 0.000605 ± 0.0002 s⁻¹ | – | 0.000428 ± 7.3e-05 s⁻¹ | 5380 ± 2700 µM | 8.18e-05 ± 1.4e-05 s⁻¹ | 0.000171 ± 2.4e-05 s⁻¹ | –
32 | G13A C16A | 0.000316 ± 9.2e-06 s⁻¹ | – | 0.000132 ± 1.9e-05 s⁻¹ | – | – | 4.78e-05 ± 7.4e-06 s⁻¹ | –
33 | G13C U47A G59U C67G | 1.81e-05 ± 2.9e-06 s⁻¹ | – | – | – | < 1e-05 s⁻¹ | – | –
34 | A12U G51A | 1.05e-05 ± 2.6e-06 s⁻¹ | – | – | – | – | – | –
35 | A12U A36U | 2.03e-05 ± 6.7e-07 s⁻¹ | – | – | 2080 ± 230 µM | – | – | –
36 | G13A U55G C71G | 4.93e-05 ± 1.6e-05 s⁻¹ | < 1e-05 s⁻¹ | 4.08e-05 ± 1.6e-05 s⁻¹ | – | – | 7.49e-05 ± 2.8e-05 s⁻¹ | –
37 | A14C G66U | 0.000181 ± 3.7e-05 s⁻¹ | – | 0.000191 ± 2.6e-05 s⁻¹ | – | 8.12e-05 ± 1.4e-05 s⁻¹ | 9.62e-05 ± 2e-05 s⁻¹ | –
38 | G13C U54C | 0.000135 ± 1.9e-05 s⁻¹ | – | 0.000107 ± 1.7e-05 s⁻¹ | 2870 ± 1000 µM | – | 5.89e-05 ± 1.2e-05 s⁻¹ | –
39 | G13C U54A | 0.000202 ± 4.2e-05 s⁻¹ | – | 0.000108 ± 7.3e-06 s⁻¹ | 8810 ± 3600 µM | – | 4.26e-05 ± 8.3e-06 s⁻¹ | –
